Reference: patent publication US20240400708A1
Numbering of substitutions follows the chain as printed. Names and notes keep the numbering of the source.

B1: feline IgG1a S428H (antibody, part only; not given: Variable domains, not shown: another chain or arm of the molecule)
constant: ASTTAPSVFPLAPSCGTTSGATVALACLVLGYFPEPVTVSWNSGALTSGVHTFPAVLQASGLYSLSSMVTVPSSRWLSDTFTCNVAHPPSNTKVDKTVRKTDHPPGPKPCDCPKCPPPEMLGGPSIFIFPPKPKDTLSISRTPEVTCLVVDLGPDDSDVQITWFVDNTQVYTAKTSPREEQFNSTYRVVSVLPILHQDWLKGKEFKCKVNSKSLPSPIERTISKAKGQPHEPQVYVLPPAQEELSRNKVSVTCLIKSFHPPDIAVEWEITGQPEPENNYRTTPPQLDSDGTYFVYSKLSVDRSHWQRGNTYTCSVHHEALHSHHTQKSLTQSPGK
B2: feline IgG1a S428I (antibody, part only; not given: Variable domains, not shown: another chain or arm of the molecule)
constant: B1 constant with H316I
B3: feline IgG1a S428K (antibody, part only; not given: Variable domains, not shown: another chain or arm of the molecule)
constant: B1 constant with H316K
B4: feline IgG1a S434L (antibody, part only; not given: Variable domains, not shown: another chain or arm of the molecule)
constant: B1 constant with H316S, S322L
B5: feline IgG1a S428N (antibody, part only; not given: Variable domains, not shown: another chain or arm of the molecule; small tags and cut ends)
constant: B1 constant with H316N
B6: feline IgG1a S428P (antibody, part only; not given: Variable domains, not shown: another chain or arm of the molecule; small tags and cut ends)
constant: B1 constant with H316P
B7: feline IgG1a S428Q (antibody, part only; not given: Variable domains, not shown: another chain or arm of the molecule; small tags and cut ends)
constant: B1 constant with H316Q
B8: feline IgG1a S428R (antibody, part only; not given: Variable domains, not shown: another chain or arm of the molecule; small tags and cut ends)
constant: B1 constant with H316R
B9: feline IgG1a S428T (antibody, part only; not given: Variable domains, not shown: another chain or arm of the molecule; small tags and cut ends)
constant: B1 constant with H316T
B10: feline IgG1a S428V (antibody, part only; not given: Variable domains, not shown: another chain or arm of the molecule; small tags and cut ends)
constant: B1 constant with H316V
B11: feline IgG1a S428W (antibody, part only; not given: Variable domains, not shown: another chain or arm of the molecule; small tags and cut ends)
constant: B1 constant with H316W
B12: feline IgG1a S434M (antibody, part only; not given: Variable domains, not shown: another chain or arm of the molecule)
constant: B1 constant with H316S, S322M
B13: feline IgG1a S434N (antibody, part only; not given: Variable domains, not shown: another chain or arm of the molecule)
constant: B1 constant with H316S, S322N
B14: feline IgG1a S252M (antibody, part only; not given: Variable domains, not shown: another chain or arm of the molecule)
constant: B1 constant with S138M, H316S
B15: feline IgG1a S252W (antibody, part only; not given: Variable domains, not shown: another chain or arm of the molecule)
constant: B1 constant with S138W, H316S
B16: feline IgG1a S434P (antibody, part only; not given: Variable domains, not shown: another chain or arm of the molecule)
constant: B1 constant with H316S, S322P
B17: feline IgG1a S428L (antibody, part only; not given: Variable domains, not shown: another chain or arm of the molecule)
constant: B1 constant with H316L
B18: feline IgG1a S428M (antibody, part only; not given: Variable domains, not shown: another chain or arm of the molecule)
constant: B1 constant with H316M
B19: feline IgG1a S254N (antibody, part only; not given: Variable domains, not shown: another chain or arm of the molecule)
constant: B1 constant with S140N, H316S
B20: feline IgG1a S254Q (antibody, part only; not given: Variable domains, not shown: another chain or arm of the molecule)
constant: B1 constant with S140Q, H316S
B21: feline IgG1a S254R (antibody, part only; not given: Variable domains, not shown: another chain or arm of the molecule)
constant: B1 constant with S140R, H316S
B22: feline IgG1a S254T (antibody, part only; not given: Variable domains, not shown: another chain or arm of the molecule)
constant: B1 constant with S140T, H316S
B23: feline IgG1a S254W (antibody, part only; not given: Variable domains, not shown: another chain or arm of the molecule)
constant: B1 constant with S140W, H316S
B24: feline IgG1a S254Y (antibody, part only; not given: Variable domains, not shown: another chain or arm of the molecule)
constant: B1 constant with S140Y, H316S
B25: feline IgG1a T256A (antibody, part only; not given: Variable domains, not shown: another chain or arm of the molecule)
constant: B1 constant with T142A, H316S
B26: feline IgG1a T256C (antibody, part only; not given: Variable domains, not shown: another chain or arm of the molecule)
constant: B1 constant with T142C, H316S
B27: feline IgG1a T256D (antibody, part only; not given: Variable domains, not shown: another chain or arm of the molecule)
constant: B1 constant with T142D, H316S
B28: feline IgG1a T256E (antibody, part only; not given: variable domains and light chain, not shown: another chain or arm of the molecule)
constant: B1 constant with T142E, H316S
B29: feline IgG1a T256G (antibody, part only; not given: variable domains and light chain, not shown: another chain or arm of the molecule)
constant: B1 constant with T142G, H316S
B30: feline IgG1a T256H (antibody, part only; not given: Variable domains, not shown: another chain or arm of the molecule)
constant: B1 constant with T142H, H316S
B31: feline IgG1a T256I (antibody, part only; not given: Variable domains, not shown: another chain or arm of the molecule)
constant: B1 constant with T142I, H316S
B32: feline IgG1a T256K (antibody, part only; not given: Variable domains, not shown: another chain or arm of the molecule)
constant: B1 constant with T142K, H316S
B33: feline IgG1a T256L (antibody, part only; not given: Variable domains, not shown: another chain or arm of the molecule)
constant: B1 constant with T142L, H316S
B34: feline IgG1a T256M (antibody, part only; not given: Variable domains, not shown: another chain or arm of the molecule)
constant: B1 constant with T142M, H316S
B35: feline IgG1a T256N (antibody, part only; not given: Variable domains, not shown: another chain or arm of the molecule)
constant: B1 constant with T142N, H316S
B36: feline IgG1a T256P (antibody, part only; not given: Variable domains, not shown: another chain or arm of the molecule)
constant: B1 constant with T142P, H316S
B37: feline IgG1a T256Q (antibody, part only; not given: Variable domains, not shown: another chain or arm of the molecule)
constant: B1 constant with T142Q, H316S
B38: feline IgG1a T256R (antibody, part only; not given: Variable domains, not shown: another chain or arm of the molecule)
constant: B1 constant with T142R, H316S
B39: feline IgG1a T256V (antibody, part only; not given: Variable domains, not shown: another chain or arm of the molecule)
constant: B1 constant with T142V, H316S
B40: feline IgG1a T256W (antibody, part only; not given: Variable domains, not shown: another chain or arm of the molecule)
constant: B1 constant with T142W, H316S
B41: feline IgG1a T256Y (antibody, part only; not given: Variable domains, not shown: another chain or arm of the molecule)
constant: B1 constant with T142Y, H316S
B42: feline IgG1a S434T (antibody, part only; not given: Variable domains, not shown: another chain or arm of the molecule)
constant: B1 constant with H316S, S322T
B43: feline IgG1a Q311W/D312P/L314K (antibody, part only; not given: Variable domains, not shown: another chain or arm of the molecule)
constant: B1 constant with Q197W, D198P, L200K, H316S
B44: feline IgG1a Q311W/S434Y (antibody, part only; not given: Variable domains, not shown: another chain or arm of the molecule)
constant: B1 constant with Q197W, H316S, S322Y
B45: feline IgG1a S434V (antibody, part only; not given: Variable domains, not shown: another chain or arm of the molecule)
constant: B1 constant with H316S, S322V
B46: feline IgG1a S252Y/L314K (antibody, part only; not given: Variable domains, not shown: another chain or arm of the molecule)
constant: B1 constant with S138Y, L200K, H316S
B47: feline IgG1a S252Y/Q311W/S434Y (antibody, part only; not given: Variable domains, not shown: another chain or arm of the molecule)
constant: B1 constant with S138Y, Q197W, H316S, S322Y
B48: feline IgG1a S252Y/S428Y (antibody, part only; not given: Variable domains, not shown: another chain or arm of the molecule)
constant: B1 constant with S138Y, H316Y
B49: feline IgG1a S252Y/S428Y/Q311W (antibody, part only; not given: Variable domains, not shown: another chain or arm of the molecule)
constant: B1 constant with S138Y, Q197W, H316Y
B50: feline IgG1a S252Y/S428Y/S434Y (antibody, part only; not given: variable domains and light chain, not shown: another chain or arm of the molecule)
constant: B1 constant with S138Y, H316Y, S322Y
B51: feline IgG1a S252Y/S434F (antibody, part only; not given: Variable domains, not shown: another chain or arm of the molecule)
constant: B1 constant with S138Y, H316S, S322F
B52: feline IgG1a S252Y/S434F/Q311W (antibody, part only; not given: Variable domains, not shown: another chain or arm of the molecule)
constant: B1 constant with S138Y, Q197W, H316S, S322F
B53: feline IgG1a S252Y/S434Y (antibody, part only; not given: Variable domains, not shown: another chain or arm of the molecule)
constant: B1 constant with S138Y, H316S, S322Y
B54: feline IgG1a T256S (antibody, part only; not given: Variable domains, not shown: another chain or arm of the molecule)
constant: B1 constant with T142S, H316S
B55: feline IgG1a S252Y/D312P (antibody, part only; not given: Variable domains, not shown: another chain or arm of the molecule; small tags and cut ends)
constant: B1 constant with S138Y, D198P, H316S
B56: feline IgG1a D312H (antibody, part only; not given: Variable domains, not shown: another chain or arm of the molecule; small tags and cut ends)
constant: B1 constant with D198H, H316S
B57: feline IgG1a D399T (antibody, part only; not given: Variable domains, not shown: another chain or arm of the molecule)
constant: B1 constant with D287T, H316S
B58: feline IgG1a S434A (antibody, part only; not given: Variable domains, not shown: another chain or arm of the molecule)
constant: B1 constant with H316S, S322A
B59: feline IgG1a D401R (antibody, part only; not given: Variable domains, not shown: another chain or arm of the molecule)
constant: B1 constant with D289R, H316S
B60: feline IgG1a S434C (antibody, part only; not given: Variable domains, not shown: another chain or arm of the molecule)
constant: B1 constant with H316S, S322C
B61: feline IgG1a Q311L (antibody, part only; not given: Variable domains, not shown: another chain or arm of the molecule)
constant: B1 constant with Q197L, H316S
B62: feline IgG1a S434D (antibody, part only; not given: Variable domains, not shown: another chain or arm of the molecule)
constant: B1 constant with H316S, S322D

Target: feline FcRn complex (FcRn-α subunit and β-microglobulin), biotin labeled (feline)
Experiment: SPR, pH 6

Binder	Kd [nM]
B1	41.6
B2	40.8
B3	70.2
B4	8.67
B5	42.9
B6	18
B7	38.3
B8	68.6
B9	27.3
B10	19.2
B11	36.4
B12	2.8
B13	6.94
B14	55
B15	80.3
B16	5.64
B17	81.5
B18	21.8
B19	25.7
B20	24.7
B21	21.5

Binder	Kd [nM]
B22	16.1
B23	60.9
B24	78.5
B25	40.6
B26	154
B27	244
B28	50.9
B29	76.9
B30	87.4
B31	115
B32	107
B33	86.5
B34	19.3
B35	77.4
B36	57.6
B37	58.6
B38	27.7
B39	19.5
B40	25.2
B41	22
B42	10.6

Binder	Kd [nM]
B43	1230
B44	27
B45	3.71
B46	10.9
B47	97.2
B48	17.2
B49	67.7
B50	78.1
B51	1970
B52	164
B53	116
B54	2140
B55	10.5
B56	7.33
B57	6.75
B58	4.49
B59	4.77
B60	11.8
B61	6.38
B62	5.66
